# Data: patent publication US20220389400
# Target: amyloid β (UniProt P05067)
# Chain of UniProt P05067 (P05067 whole entry, looked up): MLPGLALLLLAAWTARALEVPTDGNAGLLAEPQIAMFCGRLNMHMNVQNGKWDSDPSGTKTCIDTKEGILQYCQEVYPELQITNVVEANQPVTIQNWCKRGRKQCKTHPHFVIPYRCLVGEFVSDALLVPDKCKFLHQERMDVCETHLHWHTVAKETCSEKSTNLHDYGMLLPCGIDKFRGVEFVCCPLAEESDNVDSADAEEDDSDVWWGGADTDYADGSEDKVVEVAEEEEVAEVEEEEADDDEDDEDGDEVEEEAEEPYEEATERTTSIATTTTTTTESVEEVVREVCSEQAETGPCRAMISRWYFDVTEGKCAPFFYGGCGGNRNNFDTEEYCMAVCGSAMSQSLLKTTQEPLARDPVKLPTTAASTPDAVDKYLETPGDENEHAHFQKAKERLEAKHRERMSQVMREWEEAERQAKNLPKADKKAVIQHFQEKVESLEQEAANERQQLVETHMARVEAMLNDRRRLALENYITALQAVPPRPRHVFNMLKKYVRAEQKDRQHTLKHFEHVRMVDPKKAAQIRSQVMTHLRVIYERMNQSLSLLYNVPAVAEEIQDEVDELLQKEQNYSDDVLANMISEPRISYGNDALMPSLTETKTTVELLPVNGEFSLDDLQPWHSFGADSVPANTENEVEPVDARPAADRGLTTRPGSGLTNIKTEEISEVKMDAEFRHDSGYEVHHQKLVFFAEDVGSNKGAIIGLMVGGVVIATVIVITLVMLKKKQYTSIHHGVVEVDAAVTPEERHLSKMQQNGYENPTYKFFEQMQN
substance,measurement,value
NIaΔ20 (20 amino acids removed from the C-terminus),activity to degrade amyloid β (Western blot),showed activity similar to normal NIa
NIaΔ24 (24 amino acids removed from the C-terminus),activity to degrade amyloid β (Western blot),showed activity similar to normal NIa
NIaΔ28 (28 amino acids removed from the C-terminus),activity to degrade amyloid β (Western blot),showed significantly reduced activity
TuMV-derived NIa protease,protease activity; amount of amyloid β by Western blot (4G8),amyloid β disappeared after treatment with NIa and its fragment for 1 hour
